Tests used:
Assay in all cases: cell-based or functional assay
[1] = molecular target: dominant negative Fas receptor (dnFAS)
FAS-(41BB) construct = FAS-(41BB) construct (UniProt Q07011)
[2] = molecular target: FAS-(MyD88-CD40) Fas redirector
[3] = molecular target: FAS-(CD27) Fas redirector

Measured: percentage of viable cells after 24 hours of exposure to CH11

Chain of FAS-(CD27) Fas redirector (chain, as listed by the source): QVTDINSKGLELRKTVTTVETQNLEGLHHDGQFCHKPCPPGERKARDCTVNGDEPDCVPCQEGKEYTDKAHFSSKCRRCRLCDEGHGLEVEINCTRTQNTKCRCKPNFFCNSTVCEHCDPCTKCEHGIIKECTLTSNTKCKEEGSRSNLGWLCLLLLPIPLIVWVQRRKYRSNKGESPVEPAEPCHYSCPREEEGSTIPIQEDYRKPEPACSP
Chain of UniProt Q07011 (Q07011 other isoform, or with tags, fused parts or gaps): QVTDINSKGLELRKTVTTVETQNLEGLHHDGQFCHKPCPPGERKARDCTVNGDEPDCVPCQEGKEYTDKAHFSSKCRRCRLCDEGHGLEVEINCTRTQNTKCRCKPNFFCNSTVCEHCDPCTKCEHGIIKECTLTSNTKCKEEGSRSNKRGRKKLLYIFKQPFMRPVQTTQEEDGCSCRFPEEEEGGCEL
Chain of FAS-(MyD88-CD40) Fas redirector (chain, as listed by the source): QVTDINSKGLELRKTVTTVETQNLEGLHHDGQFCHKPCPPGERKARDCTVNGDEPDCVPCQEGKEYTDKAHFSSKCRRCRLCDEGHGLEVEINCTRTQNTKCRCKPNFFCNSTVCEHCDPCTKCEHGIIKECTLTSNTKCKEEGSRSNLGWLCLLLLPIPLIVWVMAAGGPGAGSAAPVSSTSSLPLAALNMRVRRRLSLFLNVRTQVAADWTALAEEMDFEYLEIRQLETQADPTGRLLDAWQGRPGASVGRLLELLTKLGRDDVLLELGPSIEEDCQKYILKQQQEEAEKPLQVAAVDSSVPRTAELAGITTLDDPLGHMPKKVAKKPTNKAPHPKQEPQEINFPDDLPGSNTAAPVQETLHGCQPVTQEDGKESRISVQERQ

CH11 (Sigma-Aldrich), a Fas agonist (antibody)
> 60%: all assays above

— patent publication US20250388646A1
